These results are taken from US10921324B2, “Compositions and methods related to the methylation of histone H1.0 protein” (Aelan Cell Technologies, Inc., priority 2016, dated 2021).

Ends that are not written are not given here.

The assay deals with T1, GLP methyltransferase (Homo sapiens, UniProt Q9H9B1).
T1 construct: purchased Cayman Chemical 10755
T1 sequence (Q9H9B1 1-1298): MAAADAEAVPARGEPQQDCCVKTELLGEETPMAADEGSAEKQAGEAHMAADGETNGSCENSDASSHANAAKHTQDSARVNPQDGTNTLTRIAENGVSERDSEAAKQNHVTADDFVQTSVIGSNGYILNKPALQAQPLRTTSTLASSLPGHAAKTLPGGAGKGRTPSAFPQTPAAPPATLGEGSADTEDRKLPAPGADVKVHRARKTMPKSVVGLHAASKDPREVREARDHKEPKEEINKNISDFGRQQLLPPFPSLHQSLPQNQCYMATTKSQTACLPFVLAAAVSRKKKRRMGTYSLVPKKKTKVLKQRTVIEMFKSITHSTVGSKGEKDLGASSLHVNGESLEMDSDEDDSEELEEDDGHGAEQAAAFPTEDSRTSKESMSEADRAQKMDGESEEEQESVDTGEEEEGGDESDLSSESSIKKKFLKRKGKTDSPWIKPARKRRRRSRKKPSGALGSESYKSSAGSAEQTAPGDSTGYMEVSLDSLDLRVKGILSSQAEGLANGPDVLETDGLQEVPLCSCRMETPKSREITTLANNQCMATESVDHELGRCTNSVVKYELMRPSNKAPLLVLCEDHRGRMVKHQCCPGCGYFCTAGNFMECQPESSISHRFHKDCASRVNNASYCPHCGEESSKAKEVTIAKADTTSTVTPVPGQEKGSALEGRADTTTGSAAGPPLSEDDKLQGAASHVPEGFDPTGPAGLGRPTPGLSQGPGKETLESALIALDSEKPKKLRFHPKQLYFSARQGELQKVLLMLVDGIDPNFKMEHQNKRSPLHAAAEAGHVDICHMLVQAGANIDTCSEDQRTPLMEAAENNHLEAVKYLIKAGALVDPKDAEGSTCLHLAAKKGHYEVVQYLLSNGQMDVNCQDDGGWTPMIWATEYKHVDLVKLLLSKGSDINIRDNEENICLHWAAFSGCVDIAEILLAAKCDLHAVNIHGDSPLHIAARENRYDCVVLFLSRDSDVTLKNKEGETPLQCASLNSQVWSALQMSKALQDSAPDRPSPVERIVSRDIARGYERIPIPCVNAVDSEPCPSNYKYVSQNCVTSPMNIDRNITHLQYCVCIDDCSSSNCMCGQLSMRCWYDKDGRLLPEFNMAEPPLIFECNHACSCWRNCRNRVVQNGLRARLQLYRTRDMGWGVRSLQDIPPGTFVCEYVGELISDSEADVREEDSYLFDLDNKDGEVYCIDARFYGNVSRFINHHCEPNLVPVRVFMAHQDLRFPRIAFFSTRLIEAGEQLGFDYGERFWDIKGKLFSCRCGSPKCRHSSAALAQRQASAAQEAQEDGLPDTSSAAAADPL
The assay can be described thus: In vitro methylation of unmodified H1.0 peptide with GLP, products by LC-MS. The format is biochemical. The settings on record: LC-MS spectral counts; 10U GLP, 3.2 mM S-Adenosyl-L-Methionine, 37° C. 1 hour. The protocol:
In order to identify the precise sites of methylation by G9A and GLP methyltransferases on histone H1.0, in vitro methylation assays were performed and subsequently analyzed by Liquid Chromatography and High-resolution Mass Spectrometry (LC-MS) analysis. Methylation reactions were set up using either G9A methyltransferase (NEB, M0235S, Lot #0031201) or GLP methyltransferase (Cayman Chemical, 10755). The methyl donor in each reaction was unlabeled S-Adenosyl-L-Methionine (NEB, B9003S). […]
For the Liquid Chromatography and High-resolution Mass Spectrometry (LC-MS) analysis, samples were prepared as described above and about 1 μg o the product was injected onto a Thermo Scientific Easy nLC system configured with a 10 cm×100 um trap column and a 25 cm×100 um ID resolving column. […] This ensured optimal full-scan data for quantification. […]
Protein identification was performed using Thermo Scientific Proteome Discoverer version 1.4 (including Sequest and Percolator algorithms) using RefSeqHuman sequence database. […] Protein quantification was performed using Pinpoint version 1.4 software. The Pinpoint quantification workflow included importing the Proteome Discoverer .msf files as spectral libraries. Identified peptides were subsequently quantified in MS .raw files using the Pinpoint peak finding, chromatographic alignment and area calculation algorithms. […]

In the case of “AKPVKASKPKKAKPVKPK (not fully specified (N-terminus); listed as Homo sapiens) [unmethylated H1.0 peptide, unmodified H1.0 peptide substrate for in vitro methylation]”, the “H1.0K180 dimethylated, % of all peptides” value stood at 96.6%.
